T1: human B7H4 expressed on CHO cells (human, UniProt Q7Z7D3 25-282)
T1 construct: whole, on cells; also called VCTN1
T1 sequence (looked up): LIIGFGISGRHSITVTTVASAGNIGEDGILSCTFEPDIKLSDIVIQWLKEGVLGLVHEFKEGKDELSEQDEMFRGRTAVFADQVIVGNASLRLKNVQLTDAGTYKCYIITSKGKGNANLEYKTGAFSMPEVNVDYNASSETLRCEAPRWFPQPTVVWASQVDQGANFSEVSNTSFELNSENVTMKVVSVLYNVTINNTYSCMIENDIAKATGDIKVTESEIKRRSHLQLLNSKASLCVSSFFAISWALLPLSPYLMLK

B1: Ly486 (bispecific antibody, human IgG1, kappa)
heavy: EVQLVESGGGLVKPGGSLKLSCAASGFTFSDSGMHWVRQAPEKGLEWITYINSGSSTIYYADSVKGRFTISRDNAKNTLFLQMTSLRSEDTAMYYCARGRGYAMDYWGQGTSVTVSSASTKGPSVFPLAPSSKSTSGGTAALGCLVKDYFPEPVTVSWNSGALTSGVHTFPAVLQSSGLYSLSSVVTVPSSSLGTQTYICNVNHKPSNTKVDKKVEPKSCDKTHTCPPCPAPELLGPSVFLFPPKPKDTLMISRTPEVTCVVVDVSHEDPEVKFNWYVDGVEVHNAKTKPREEQYNSTYRVVSVLTVLHQDWLNGKEYKCKVSNKALPAPIEKTISKAKGQPREPQVYTLPPSREEMTKNQVSLTCLVKGFYPSDIAVEWESNGQPENNYKTTPPVLDSDGSFFLYSKLTVDKSRWQQGNVFSCSVMHEALHNHYTQKSLSLSPGGGGGSGGGGSGGGGSGGGGSDIQMTQSPSSLSASVGDRVTITCKASQNIYIYLNWYQQKPGKAPKLLIYNTNNLQTGVPSRFSGSGSGTDFTLTISSLQPEDFATYYCLQHSSRRTFGGGTKVEIKGGGGSGGGGSGGGGSGGGGSQVQLVESGGGLVQPGGSLKLSCATSGFNFNDYFMNWVRQASGKGLEWVGQIRNKNYNYATYYTESLEGRVTISRDDSKNTAYLQMNSLKTEDTAVYYCTSYYYDGFADYFDYWGQGTTVTVSS
light: EIVLTQSPTTMAASPGEKITIFCSASSSISSDFLHWYQQKPGFSPKLLIYRISNLASGVPARFSGSGSGTSYSLTIGTMEAEDVATYYCQQGSNVPRTFGGGTKLEIKRTVAAPSVFIFPPSDEQLKSGTASVVCLLNNFYPREAKVQWKVDNALQSGNSQESVTEQDSKDSTYSLSSTLTLSKADYEKHKVYACEVTHQGLSSPVTKSFNRGEC
notes: Ly366 HC (IgG1 mutated Fc)-TM740 scFv VL-VH + Ly366 LC
B2: Ly361 (chimeric) (antibody, human IgG1, kappa, V domains shown)
VH: EVQLVESGGDLVKPGGSLKLSCAASGFTFSSYGMSWVRQTPDKRLEWVAAISTGGSYTYYPDSVKGRFTISRDTATNTLYLQMSTLKSEDTAMYYCTRRGATGSWFAYWGQGTLVTVSA
VL: DILMTQSPSSMSVSLGDTVSITCHASQGINNNIGWLQRKPGKSFKGLIYHGTNLEDGVPSRFSGSGSGADYSLTISSLESEDFADYYCVQYVQFPRTFGGGTKLEIKR
notes: chimeric, human IgG1 constant region; also called hybridoma 14D3
B3: Ly488 (bispecific antibody, human IgG1, kappa)
heavy: EVQLVESGGGLVKPGGSLKLSCAASGFTFSDSGMHWVRQAPEKGLEWITYINSGSSTIYYADSVKGRFTISRDNAKNTLFLQMTSLRSEDTAMYYCARGRGYAMDYWGQGTSVTVSSASTKGPSVFPLAPSSKSTSGGTAALGCLVKDYFPEPVTVSWNSGALTSGVHTFPAVLQSSGLYSLSSVVTVPSSSLGTQTYICNVNHKPSNTKVDKKVEPKSCDKTHTCPPCPAPELLGPSVFLFPPKPKDTLMISRTPEVTCVVVDVSHEDPEVKFNWYVDGVEVHNAKTKPREEQYNSTYRVVSVLTVLHQDWLNGKEYKCKVSNKALPAPIEKTISKAKGQPREPQVYTLPPSREEMTKNQVSLTCLVKGFYPSDIAVEWESNGQPENNYKTTPPVLDSDGSFFLYSKLTVDKSRWQQGNVFSCSVMHEALHNHYTQKSLSLSPGK
light: EIVLTQSPTTMAASPGEKITIFCSASSSISSDFLHWYQQKPGFSPKLLIYRISNLASGVPARFSGSGSGTSYSLTIGTMEAEDVATYYCQQGSNVPRTFGGGTKLEIKRTVAAPSVFIFPPSDEQLKSGTASVVCLLNNFYPREAKVQWKVDNALQSGNSQESVTEQDSKDSTYSLSSTLTLSKADYEKHKVYACEVTHQGLSSPVTKSFNRGECGGGGSGGGGSGGGGSGGGGSDIQMTQSPSSLSASVGDRVTITCKASQNIYIYLNWYQQKPGKAPKLLIYNTNNLQTGVPSRFSGSGSGTDFTLTISSLQPEDFATYYCLQHSSRRTFGGGTKVEIKGGGGSGGGGSGGGGSGGGGSQVQLVESGGGLVQPGGSLKLSCATSGFNFNDYFMNWVRQASGKGLEWVGQIRNKNYNYATYYTESLEGRVTISRDDSKNTAYLQMNSLKTEDTAVYYCTSYYYDGFADYFDYWGQGTTVTVSS
notes: Ly366 HC (IgG1 mutated Fc) + Ly366 LC-TM740 scFv VL-VH
B4: Ly366 (chimeric) (antibody, human IgG1, kappa, V domains shown)
VH: EVQLVESGGGLVKPGGSLKLSCAASGFTFSDSGMHWVRQAPEKGLEWITYINSGSSTIYYADSVKGRFTISRDNAKNTLFLQMTSLRSEDTAMYYCARGRGYAMDYWGQGTSVTVSS
VL: EIVLTQSPTTMAASPGEKITIFCSASSSISSDFLHWYQQKPGFSPKLLIYRISNLASGVPARFSGSGSGTSYSLTIGTMEAEDVATYYCQQGSNVPRTFGGGTKLEIKR
notes: chimeric, human IgG1 constant region; also called hybridoma 25F3
B5: LP3772 (antibody, human IgG4 S228P, kappa)
heavy: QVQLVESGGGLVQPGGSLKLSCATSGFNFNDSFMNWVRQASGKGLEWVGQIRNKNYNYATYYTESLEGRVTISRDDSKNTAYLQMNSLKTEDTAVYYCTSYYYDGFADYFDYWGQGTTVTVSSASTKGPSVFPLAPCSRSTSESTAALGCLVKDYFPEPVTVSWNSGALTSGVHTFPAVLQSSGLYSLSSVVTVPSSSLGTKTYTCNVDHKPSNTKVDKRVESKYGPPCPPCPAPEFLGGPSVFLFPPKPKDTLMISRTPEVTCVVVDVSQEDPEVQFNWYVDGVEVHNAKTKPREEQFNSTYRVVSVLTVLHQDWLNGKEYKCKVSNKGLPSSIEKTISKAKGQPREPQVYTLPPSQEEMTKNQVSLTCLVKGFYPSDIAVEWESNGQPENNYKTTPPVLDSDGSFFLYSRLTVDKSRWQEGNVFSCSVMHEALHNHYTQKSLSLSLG
light: DIQMTQSPSSLSASVGDRVTITCKASQNIYIYLNWYQQKPGKAPKLLIYNTNNLQTGVPSRFSGSGSGTDFTLTISSLQPEDFATYYCLQHSSRRTFGGGTKVEIKRTVAAPSVFIFPPSDEQLKSGTASVVCLLNNFYPREAKVQWKVDNALQSGNSQESVTEQDSKDSTYSLSSTLTLSKADYEKHKVYACEVTHQGLSSPVTKSFNRGEC
notes: VH-2/IgG4, VL-1/kappa

What follows are binders tested against T1, human B7H4 expressed on CHO cells (assay: FACS, CHO cells).

Row | binding result | Binder
1 | binds | B1
2 | binds | B2
3 | binds | B3
4 | binds | B4

Each binder was assayed against T2, human CD40 expressed on CHO cells (human, UniProt P25942 21-277) (assay: FACS, CHO cells).
T2 construct: whole, on cells; also used for the reporter cells over-expressing human CD40; also called cellular CD40; CHO-CD40 cells
T2 sequence (P25942 21-277): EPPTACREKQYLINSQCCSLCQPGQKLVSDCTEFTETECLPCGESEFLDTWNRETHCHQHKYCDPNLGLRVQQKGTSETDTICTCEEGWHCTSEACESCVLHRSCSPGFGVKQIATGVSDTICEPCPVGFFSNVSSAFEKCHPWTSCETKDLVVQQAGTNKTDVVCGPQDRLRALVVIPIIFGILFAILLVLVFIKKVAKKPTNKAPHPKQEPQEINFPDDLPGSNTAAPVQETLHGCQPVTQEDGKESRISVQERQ

Row | binding result | Binder
5 | binds | B5
6 | binds | B1
7 | binds | B3
